Target: T1, FAP45 (flagellar-associated protein 45) (Chlamydomonas (endogenous in wild type …, UniProt A8I9E8 1-501))
T1 construct: FAP45 of Chlamydomonas, a coiled-coil protein of 501 amino acids, predicted ~59 kDa; endogenous protein in the axoneme; also called FAP45/CCDC19; MIP3c; source: endogenous, isolated wild type Chlamydomonas axonemes
T1 sequence (looked up): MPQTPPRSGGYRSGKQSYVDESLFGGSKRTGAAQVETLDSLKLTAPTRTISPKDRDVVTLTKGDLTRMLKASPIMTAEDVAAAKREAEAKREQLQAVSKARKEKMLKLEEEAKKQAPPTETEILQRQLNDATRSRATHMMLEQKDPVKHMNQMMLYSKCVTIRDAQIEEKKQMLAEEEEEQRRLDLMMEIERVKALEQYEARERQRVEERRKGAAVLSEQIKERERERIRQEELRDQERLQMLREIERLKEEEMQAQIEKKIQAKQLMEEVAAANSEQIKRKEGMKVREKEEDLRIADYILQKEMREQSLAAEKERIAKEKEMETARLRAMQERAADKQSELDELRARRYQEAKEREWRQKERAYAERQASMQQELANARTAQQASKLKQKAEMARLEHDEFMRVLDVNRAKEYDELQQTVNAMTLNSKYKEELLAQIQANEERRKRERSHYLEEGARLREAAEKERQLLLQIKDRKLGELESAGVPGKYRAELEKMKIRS
Experiment: cross-linking; EDC-crosslinked wild type axonemes solubilized, crosslinked products immunoprecipitated with anti-FAP45 antibody, LC tandem MS of the precipitates
Details: partners not purified

stoichiometry N: 1
B1: FAP52 (flagellar-associated protein 52) (natural protein, UniProt A8ILK1 1-615, looked up)
chain: MAEPLVLNSVIGFGGAIENGLIAHPDGRTIIYPLGSTIVLRDRADPRSQEFLQGHSDKVSCLALSRSGRYLASGQITYMGFTADIIIWDLESKQLIHRMALHKVKVQALDFSCDERFLASLGGQDDNALVLWDVASGNAICGSPCNTNFTNCVKFFNNSPDKLITAGNFNMNVWTYDAGNNKLRPTDATLGTLKRVFKSVVVDANDEYAYCGTTTGDVLQIALERVLFKNTGPAKGNVQMGVTATCEVPTGDILVGGGDGSLQLLRKMPALAGTKVEGAITSIALADMNARGFTFFVGTAMCNIYKPATSRLKEELVQTAHNDKINGMAFPNEYSEVFATCGTGFIRLWHLTTCRELLRIAVPNLECFCIAFTTDGSAILSGWSDGKIRAFGPQSGKIIFTINDAHQKAVTAIASTADSSRILSGGEEGMVRVWRIGRTSQTLEASMKDHKGPVNCIRIKGSGDECVSASSDGSCILWDLHTFKRRTSLFANTFFKSVVYHPDESQLVTAGTDRKVTYWDAYDGNAIRIIDGSDLDEVNALAVDRDGEALVSGGGDKLVKLWGYDEGHCYFVGVAHSGAITAVGVTPDKQRIVSVGTEGGIFIWDYQRPQTLADI
notes: FAP52 of Chlamydomonas, ortholog of human WDR16, ~66 kDa, WD40 repeat protein; endogenous protein in the axoneme; also called FAP52/WDR16; MIP3a; source: endogenous, isolated wild type Chlamydomonas axonemes

Reference: PMC6408466, “Inner lumen proteins stabilize doublet microtubules in cilia and flagella” (Nature Communications, 2019)
